Experimental data as given in patent publication US10266566.
*1 amine or outer side, *2 acyl side, *3 side chain or, on linkers, in order; H or OH if unused. Where no end group is shown, it is not given here. [ ]: non-standard residue; d: D form. Trp(For) = Nin-formyl-tryptophan, O=Cn1cc(C[C@H](N[*:1])C(=O)[*:2])c2ccccc21; Tyr(Me) = O-methyl-tyrosine, COc1ccc(C[C@H](N[*:1])C(=O)[*:2])cc1; Phe(4-CONH2) = NC(=O)c1ccc(C[C@H](N)C(=O)O)cc1; Trp(1-Me) = Cn1cc(C[C@H](N)C(=O)O)c2ccccc21; Phe(4-Me) = Cc1ccc(C[C@H](N)C(=O)O)cc1; Cit = NC(=O)NCCC[C@H](N)C(=O)O; Lys(Me) = CNCCCC[C@H](N)C(=O)O

Columns and labels:
[1] = target: Human polyclonal immunoglobulin G (IgG) (human); test: affinity chromatography, peptide resin, 10 mg/mL hIgG in PBS; 3rd run, after alpha-chymotrypsin and then trypsin
[2] = target: Human polyclonal immunoglobulin G (IgG) (human); test: affinity chromatography, peptide resin, 10 mg/mL hIgG in PBS; 1st run, before any enzyme
[3] = target: Human polyclonal immunoglobulin G (IgG) (human); test: affinity chromatography, peptide on Toyopearl resin, pure human IgG load; yield = IgG eluted/IgG loaded, by Protein G chromatography
[4] = target: Human polyclonal immunoglobulin G (IgG) (human); test: affinity chromatography, peptide resin, 10 mg/mL hIgG in PBS; 2nd run, after resin contacted with alpha-chymotrypsin
[5] = target: Human polyclonal immunoglobulin G (IgG) (human); test: affinity chromatography of Cohn fraction II+III on peptide resin; binding buffer PBS + 0.25M NaCl
[6] = target: Human polyclonal immunoglobulin G (IgG) (human); test: affinity chromatography of Cohn fraction II+III on peptide resin; binding buffer PBS + 0.13M NaCl
[7] = target: Human polyclonal immunoglobulin G (IgG) (human); test: affinity chromatography of Cohn fraction II+III on peptide resin; binding buffer PBS + 0M NaCl

| Binder | IgG yield [1] [%] | IgG yield [2] [%] | IgG yield [3] [%] | IgG yield [4] [%] | IgG yield [5] [%] | IgG yield [6] [%] | IgG yield [7] [%] |
| --- | --- | --- | --- | --- | --- | --- | --- |
| H[Trp(1-Me)]RG[Trp(1-Me)]V-{Toyopearl AF‑Amino‑650M resin} [HWMetRGWMetV] | 82 | 91 | 91 | 91 |  |  |  |
| H[Tyr(Me)][Phe(4-Me)][Lys(Me)][Phe(4-Me)]D-{Toyopearl AF‑Amino‑650M resin} [HYMetFMetKMetFMetD] |  |  | 49 |  |  |  |  |
| Ac-HWRGWV-{Toyopearl AF‑Amino‑650M resin} [Ac-HWRGWV] |  |  |  |  | 83 | 84 | 91 |
| HW[Cit]GWV-{Toyopearl AF‑Amino‑650M resin} [HWCitGWV] | 71 | 91 | 91 | 73 |  |  |  |

Second part, the binder after the results:

| IgG yield [1] [%] | IgG yield [2] [%] | IgG yield [3] [%] | IgG yield [4] [%] | IgG yield [5] [%] | IgG yield [6] [%] | IgG yield [7] [%] | Binder |
| --- | --- | --- | --- | --- | --- | --- | --- |
| 69 | 75 | 75 | 69 |  |  |  | H[Trp(For)][Cit]G[Trp(For)]V (not fully specified (C-terminus)) [HWForCitGWForV] |
|  |  | 53 |  |  |  |  | H[Phe(4-CONH2)][Cit][Cit]HL [HFCarbCitCitHL] |
